# Experimental data reported in the supplement of paper PMC7877785.
# ± gives the uncertainty stated by the source.
# Assay: self-splicing fitness, log relative to wild type (ln ratio); higher = more splicing; Tetrahymena group I intron in knt gene, E. coli kanamycin selection, DiMSum; sequences stand for … in CUCUCU…GGAGGGAAAAGUUAUCAGGCAUGCACCUGGUAGCUAGUCUUUAAACCAAUAGAUUGCAUCGGUUUAAAAGGCAAGACCGUCAAAUUGCGGGAAAGGGGUCAACAGCCGUUCAGUACCAAGUCUCAGGGGAAACUUUGAGAUGGCCUUGCAAAGGGUAUGGUAAUAAGCUGACGGACAUGGUCCUAACCACGCAGCCAAGUCCUAAGUCAACAGAUCUUCUGUUGAUAUGGAUGCAGUUCACAGACUAAAUGUCGGUCGGGGAAGAUGUAUUCUUCUCAUAAGAUAUAGUCGGACCUCUCCUUAAUGGGAGCUAGCGGAUGAAGUGAUGCAACACUGGAGCCGCUGGGAACUAAUUUGUAUGCGAAAGUAUAUUGAUUAGUUUUGGAGUACUCGUGGUCG
# Method in brief: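 Pooled colonies went to amplicon sequencing on an Illumina HiSeq 2500 after six replicate transformations. The plates were LB agar with 100 μg/mL carbenicillin, 50 μM IPTG and 0.2% rhamnose, with or without 25 μg/mL kanamycin, incubated overnight at 37°C or 30°C. The E. coli BL21(DE3) library had all eight P1ex-region intron nucleotides randomised, the intron placed in the knt kanamycin-resistance gene on pET-22b(+). DiMSum fitness is the error-weighted combination of replicate fold changes, kanamycin against none, normalised to wild type.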
Sequence,self-splicing fitness (ln) (30 °C),self-splicing fitness (ln) (37 °C)
AAAAAGCAAUAUUACGAAAG,-2.31 ± 0.098,-1.03 ± 0.12
AAAAAGCAAUAUUACGAUCA,-0.00996 ± 0.084,-0.0134 ± 0.094
AAAAAGCAAUAUUACGCCUG,-0.823 ± 0.09,-0.000429 ± 0.12
AAAAAGCAAUAUUACGCGAG,-0.943 ± 0.085,-1.06 ± 0.11
AAAAAGCAAUAUUACGCGGG,-2.76 ± 0.16,-1.93 ± 0.15
AAAAAGCAAUAUUACGCGUC,-2.31 ± 0.16,-1.72 ± 0.16
AAAAAGCAAUAUUACGCUAA,-2.36 ± 0.15,-1.35 ± 0.13
AAAAAGCAAUAUUACGCUCG,-0.161 ± 0.11,0.0542 ± 0.14
AAAAAGCAAUAUUACGCUUG,-1.69 ± 0.087,-0.744 ± 0.1
AAAAAGCAAUAUUACGGACA,-0.0577 ± 0.11,-0.0474 ± 0.12
AAAAAGCAAUAUUACGGAGA,-3.49 ± 0.19,-3.11 ± 0.18
AAAAAGCAAUAUUACGGGCA,-0.543 ± 0.081,-0.103 ± 0.088
AAAAAGCAAUAUUACGGGGA,-1.74 ± 0.13,-1.8 ± 0.13
AAAAAGCAAUAUUACGUCAA,-1.8 ± 0.08,-0.836 ± 0.073
AAAAAGCAAUAUUACGUGAA,-1.24 ± 0.078,-0.618 ± 0.11
AAAAAGCAAUAUUACGUUCC,-1.3 ± 0.098,-0.521 ± 0.14
AAAAAGCAAUAUUACGUUGA,-2.63 ± 0.11,-1.48 ± 0.12
AAACAGCAAUAUUACGAACC,-2.56 ± 0.18,-0.124 ± 0.17
AAACAGCAAUAUUACGAAGC,-3.98 ± 0.2,-2.75 ± 0.18
AAACAGCAAUAUUACGAAGG,-3.85 ± 0.13,-2.2 ± 0.15
AAACAGCAAUAUUACGACCG,-1.6 ± 0.14,0.0387 ± 0.18
AAACAGCAAUAUUACGAGAG,-2.76 ± 0.18,-2.91 ± 0.16
AAACAGCAAUAUUACGAGCC,-2.55 ± 0.2,-1.75 ± 0.3
AAACAGCAAUAUUACGAGCU,-1.25 ± 0.068,-0.704 ± 0.086
AAACAGCAAUAUUACGAGGU,-4.6 ± 0.26,-2.53 ± 0.15
AAACAGCAAUAUUACGAGUU,-1.94 ± 0.068,-0.482 ± 0.075

Sequence,self-splicing fitness (ln) (30 °C),self-splicing fitness (ln) (37 °C)
AAACAGCAAUAUUACGAUCC,-1.8 ± 0.088,-0.41 ± 0.11
AAACAGCAAUAUUACGCAUC,-2.82 ± 0.13,-2.07 ± 0.11
AAACAGCAAUAUUACGCCGG,-2.36 ± 0.12,-1.67 ± 0.12
AAACAGCAAUAUUACGCCUU,-1.66 ± 0.093,-0.238 ± 0.1
AAACAGCAAUAUUACGCGCU,-1.03 ± 0.072,-0.289 ± 0.087
AAACAGCAAUAUUACGCGGU,-3.32 ± 0.23,-2.18 ± 0.17
AAACAGCAAUAUUACGGAAU,-3.81 ± 0.16,-2.4 ± 0.14
AAACAGCAAUAUUACGGAUA,-2.99 ± 0.15,-1.92 ± 0.14
AAACAGCAAUAUUACGGCGG,-2.4 ± 0.088,-1.35 ± 0.092
AAACAGCAAUAUUACGGGCA,-1.86 ± 0.1,-1.24 ± 0.1
AAACAGCAAUAUUACGGGCG,-2.12 ± 0.09,-1.41 ± 0.12
AAACAGCAAUAUUACGGGGG,-3.28 ± 0.22,-2.52 ± 0.19
AAACAGCAAUAUUACGGUUC,-2.65 ± 0.078,-2.6 ± 0.12
AAACAGCAAUAUUACGUAAG,-1.23 ± 0.044,-0.526 ± 0.065
AAACAGCAAUAUUACGUAGA,-2.31 ± 0.1,-0.368 ± 0.092
AAACAGCAAUAUUACGUGAU,-2.18 ± 0.053,-1.13 ± 0.072
AAACAGCAAUAUUACGUGCA,-1.19 ± 0.068,-0.303 ± 0.074
AAACAGCAAUAUUACGUUAC,-3.19 ± 0.16,-2.56 ± 0.26
AAACAGCAAUAUUACGUUCG,-1.23 ± 0.051,-0.286 ± 0.068
AAAGAGCAAUAUUACGAAGA,-4.23 ± 0.46,-1.64 ± 0.21
AAAGAGCAAUAUUACGAAGC,-1.67 ± 0.21,-2.04 ± 0.47
AAAGAGCAAUAUUACGACAU,-1.897 ± 0.015,-1.26 ± 0.034
AAAGAGCAAUAUUACGACGA,-2.27 ± 0.23,-2.57 ± 0.25
AAAGAGCAAUAUUACGAGCC,-2.96 ± 0.35,–
AAAGAGCAAUAUUACGAUUC,-2.3 ± 0.14,-1.61 ± 0.14
AAAGAGCAAUAUUACGAUUG,-4.1 ± 0.24,-2.29 ± 0.21

Sequence,self-splicing fitness (ln) (30 °C),self-splicing fitness (ln) (37 °C)
AAAGAGCAAUAUUACGCAUC,-3.52 ± 0.35,-2.24 ± 0.35
AAAGAGCAAUAUUACGCGGC,–,-3.08 ± 0.4
AAAGAGCAAUAUUACGCGGU,-3.49 ± 0.18,-1.49 ± 0.16
AAAGAGCAAUAUUACGCGUA,-1.96 ± 0.18,-1.61 ± 0.16
AAAGAGCAAUAUUACGCUAA,–,-1.52 ± 0.28
AAAGAGCAAUAUUACGCUGC,-3.15 ± 0.14,-2.84 ± 0.21
AAAGAGCAAUAUUACGGAUG,-4.57 ± 0.42,-2.06 ± 0.23
AAAGAGCAAUAUUACGGCCA,-3.01 ± 0.31,-2.5 ± 0.29
AAAGAGCAAUAUUACGGCUC,-2.64 ± 0.21,-1.67 ± 0.21
AAAGAGCAAUAUUACGGGCG,-2.3 ± 0.14,-3.1 ± 0.47
AAAGAGCAAUAUUACGGUUG,-3.84 ± 0.27,-2.14 ± 0.25
AAAGAGCAAUAUUACGUGAU,-2.95 ± 0.1,-1.81 ± 0.12
AAAGAGCAAUAUUACGUUGA,-2.75 ± 0.21,-2.28 ± 0.26
AAAUAGCAAUAUUACGACUU,0.559 ± 0.099,0.387 ± 0.13
AAAUAGCAAUAUUACGAGAA,–,-0.893 ± 0.23
AAAUAGCAAUAUUACGAUUC,-0.544 ± 0.066,-0.733 ± 0.1
AAAUAGCAAUAUUACGCCGG,-1.6 ± 0.13,-0.713 ± 0.15
AAAUAGCAAUAUUACGCCUU,-0.206 ± 0.073,0.557 ± 0.1
AAAUAGCAAUAUUACGCGUC,-2.19 ± 0.16,-0.755 ± 0.19
AAAUAGCAAUAUUACGCUAA,-2.19 ± 0.21,-1.52 ± 0.2
AAAUAGCAAUAUUACGCUCC,-1.48 ± 0.31,0.174 ± 0.42
AAAUAGCAAUAUUACGCUCU,-0.111 ± 0.075,-0.0401 ± 0.091
AAAUAGCAAUAUUACGGACG,-0.725 ± 0.069,-0.343 ± 0.096
AAAUAGCAAUAUUACGGACU,0.0218 ± 0.068,0.206 ± 0.091
AAAUAGCAAUAUUACGGCUG,-0.833 ± 0.15,-0.0574 ± 0.18
